In PMC4146615:

Key:
[1] = target: T1, SoxR (Streptomyces coelicolor) (UniProt Q9S255); assay: EMSA; details: EMSA: 10 mM Tris-HCl pH 8, 75 mM KCl, 0.1 mM DTT, 10% glycerol, 2 mM MgCl2, 0.1 ug poly(dI)-poly(dC), 2 mM dAMP, 30 uL, 6 fmol probe, SoxR 0-20 nM, 15 min …
T1 sequence: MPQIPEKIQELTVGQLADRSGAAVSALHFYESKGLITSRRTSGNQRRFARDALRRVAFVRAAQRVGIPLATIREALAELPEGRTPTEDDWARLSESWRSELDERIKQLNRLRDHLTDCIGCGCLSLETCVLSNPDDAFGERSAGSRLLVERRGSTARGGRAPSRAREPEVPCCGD

[2] = target: T1, SoxR (Streptomyces coelicolor); assay: competition; details: EMSA: 10 mM Tris-HCl pH 8, 75 mM KCl, 0.1 mM DTT, 10% glycerol, 2 mM MgCl2, 0.1 ug poly(dI)-poly(dC), 2 mM dAMP, 30 uL, 6 fmol probe, SoxR 0-20 nM, 15 min …

Substance	K_half [1]	binding [2]	Kd [1] [nM]
GACAGTCGTAGGCGGTTCCGCCCCTCCATACGTCACCCCTTGCCGACCGGCCCGACTCCACCGCGGACGACGGACGAGCCTTGACCTCGACCGGACTTGAGGTTGGAGGCTGGGCGGGATGTCGCCTCCAGTGAAGGGTGCTGCTCATGCATGCGATCCACGTGGCCTCGTTCGGTGCTCCGGACGTGCTGAGCCTGGTC (double strand) [SCO0320ext promoter probe]	binds	binds	–
SCO0321 upstream probe	–	–	> 20
SCO1177 upstream probe	–	–	> 20
ecaD (SCO4266) promoter probe	–	–	5
